The target in assay [1] is T1, L-TGF-β1 C4S/R249A (the 'WT' of the SPR assay) (human).
T1 construct: latent TGF-β1, human, with C4S and R249A; numbers count on: the protein without its signal peptide; The methods describe L-TGF-β1 alone as N-terminally His6-tagged, made in HEK293S GnTI- cells, tag cleaved with PreScission; also called WT (C4S/R249A) L-TGF-β1; mutant L-TGF-β1 (C4S/R249A); source: purified
Description: SPR; Biacore T200, 25 °C; L-TGF-β1 (C4S/R249A, or + RGEGATG) immobilised on a CM5 chip by amine coupling; integrin headpieces injected at 20 μl/min in 20 mM HEPES pH 7.5, 150 mM NaCl, 1 mM MgCl2, 1 mM CaCl2; 1:1 Langmuir model. The conditions noted are these: both partners purified. (In SPR one partner is held on a chip, and binding of the other changes the refractive index at the surface.)

Assay [2] addresses L-TGF-β1/LRRC33 complex (L-TGF-β1 dimer disulfide-linked to one LRRC33 ectodomain) (human, N-linked glycosylation | N-linked glycosylation). Description: cryo-EM structure; purified αVβ8 headpiece and purified L-TGF-β1/LRRC33 mixed on ice at a molar ratio of 2.2:1 with 1 mM MnCl2 and 0.2 mM CaCl2, then SEC; 2:2:1 map at 5.19 Å, masked 1:2 αVβ8/L-TGF-β1 at 3.24 Å. The conditions noted are these: both partners purified.

T1 sequence (P01137 other isoform, or with tags, fused parts or gaps R249A R249A): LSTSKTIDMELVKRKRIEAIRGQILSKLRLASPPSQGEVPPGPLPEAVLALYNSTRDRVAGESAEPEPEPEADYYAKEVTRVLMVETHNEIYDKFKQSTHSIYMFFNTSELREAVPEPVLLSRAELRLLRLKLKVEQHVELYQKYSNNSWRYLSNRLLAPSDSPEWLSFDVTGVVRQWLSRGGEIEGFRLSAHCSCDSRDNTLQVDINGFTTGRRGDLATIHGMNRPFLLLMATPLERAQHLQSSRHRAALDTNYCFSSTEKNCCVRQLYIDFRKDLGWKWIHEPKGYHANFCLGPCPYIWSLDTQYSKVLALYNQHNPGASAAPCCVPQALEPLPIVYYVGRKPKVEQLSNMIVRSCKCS
L-TGF-β1/LRRC33 complex (L-TGF-β1 dimer disulfide-linked to one LRRC33 ectodomain) (human, N-linked glycosylation | N-linked glycosylation), sequence (chain, as listed by the source, chain 1 of 2): as the sequence (P01137 other isoform, or with tags, fused parts or gaps R249A R249A) above, with S4C, A249R counted along it
L-TGF-β1/LRRC33 complex (L-TGF-β1 dimer disulfide-linked to one LRRC33 ectodomain) (human, N-linked glycosylation | N-linked glycosylation), sequence (chain, as listed by the source, chain 2 of 2): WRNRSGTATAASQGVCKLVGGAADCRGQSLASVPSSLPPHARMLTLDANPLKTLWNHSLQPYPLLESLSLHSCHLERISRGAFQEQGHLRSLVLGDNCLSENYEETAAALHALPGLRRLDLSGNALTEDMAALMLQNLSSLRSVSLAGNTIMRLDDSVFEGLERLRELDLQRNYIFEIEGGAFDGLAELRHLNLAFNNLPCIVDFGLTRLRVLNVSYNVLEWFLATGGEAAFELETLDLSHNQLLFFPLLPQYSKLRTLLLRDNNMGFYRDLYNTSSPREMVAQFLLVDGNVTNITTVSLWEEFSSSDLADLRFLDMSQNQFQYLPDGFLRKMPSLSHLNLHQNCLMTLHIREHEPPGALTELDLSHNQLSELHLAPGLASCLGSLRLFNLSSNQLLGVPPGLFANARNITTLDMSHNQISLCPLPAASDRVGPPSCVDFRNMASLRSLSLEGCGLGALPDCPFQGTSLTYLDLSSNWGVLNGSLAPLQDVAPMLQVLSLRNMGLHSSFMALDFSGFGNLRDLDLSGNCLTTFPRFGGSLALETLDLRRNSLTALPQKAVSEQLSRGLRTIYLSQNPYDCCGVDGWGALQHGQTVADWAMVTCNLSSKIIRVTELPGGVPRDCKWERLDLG

B1: integrin αVβ8 headpiece (αV residues 1-594, β8 residues 1-456) (complex)
chain 1: FNLDVDSPAEYSGPEGSYFGFAVDFFVPSASSRMFLLVGAPKANTTQPGIVEGGQVLKCDWSSTRRCQPIEFDATGNRDYAKDDPLEFKSHQWFGASVRSKQDKILACAPLYHWRTEMKQEREPVGTCFLQDGTKTVEYAPCRSQDIDADGQGFCQGGFSIDFTKADRVLLGGPGSFYWQGQLISDQVAEIVSKYDPNVYSIKYNNQLATRTAQAIFDDSYLGYSVAVGDFNGDGIDDFVSGVPRAARTLGMVYIYDGKNMSSLYNFTGEQMAAYFGFSVAATDINGDDYADVFIGAPLFMDRGSDGKLQEVGQVSVSLQRASGDFQTTKLNGFEVFARFGSAIAPLGDLDQDGFNDIAIAAPYGGEDKKGIVYIFNGRSTGLNAVPSQILEGQWAARSGCPPSFGYSMKGATDIDKNGYPDLIVGAFGVDRAILYRARPVITVNAGLEVYPSILNQDNKTCSLPGTALKVSCFNVRFCLKADGKGVLPRKLNFQVELLLDKLKQKGAIRRALFLYSRSPSHSKNMTISRGGLMQCEELIAYLRDESEFRDKLTPITIFMEYRLDYRTAADTTGLQPILNQFTPANISRQAHILLD
chain 2: EDNRCASSNAASCARCLALGPECGWCVQEDFISGGSRSERCDIVSNLISKGCSVDSIEYPSVHVIIPTENEINTQVTPGEVSIQLRPGAEANFMLKVHPLKKYPVDLYYLVDVSASMHNNIEKLNSVGNDLSRKMAFFSRDFRLGFGSYVDKTVSPYISIHPERIHNQCSDYNLDCMPPHGYIHVLSLTENITEFEKAVHRQKISGNIDTPEGGFDAMLQAAVCESHIGWRKEAKRLLLVMTDQTSHLALDSKLAGIVCPNDGNCHLKNNVYVKSTTMEHPSLGQLSEKLIDNNINVIFAVQGKQFHWYKDLLPLLPGTIAGEIESKAANLNNLVVEAYQKLISEVKVQVENQVQGIYFNITAICPDGSRKPGMEGCRNVTSNDEVLFNVTVTMKKCDVTGGKNYAIIKPIGFNETAKIHIHRNCSCQCEDNRGPKGKCVDETFLDSKCFQCDENK
In general, Kd refers to the equilibrium constant for the complex coming apart. As for B1, the Kd in assay [1] is 111 nM. In assay [2], the “stoichiometry N” value is 2 αVβ8 per L-TGF-β1 dimer/LRRC33 complex.

B2: integrin αVβ6 headpiece (αV residues 1-594, β6 residues 1-474) (complex)
chain 1: FNLDVDSPAEYSGPEGSYFGFAVDFFVPSASSRMFLLVGAPKANTTQPGIVEGGQVLKCDWSSTRRCQPIEFDATGNRDYAKDDPLEFKSHQWFGASVRSKQDKILACAPLYHWRTEMKQEREPVGTCFLQDGTKTVEYAPCRSQDIDADGQGFCQGGFSIDFTKADRVLLGGPGSFYWQGQLISDQVAEIVSKYDPNVYSIKYNNQLATRTAQAIFDDSYLGYSVAVGDFNGDGIDDFVSGVPRAARTLGMVYIYDGKNMSSLYNFTGEQMAAYFGFSVAATDINGDDYADVFIGAPLFMDRGSDGKLQEVGQVSVSLQRASGDFQTTKLNGFEVFARFGSAIAPLGDLDQDGFNDIAIAAPYGGEDKKGIVYIFNGRSTGLNAVPSQILEGQWAARSGCPPSFGYSMKGATDIDKNGYPDLIVGAFGVDRAILYRARPVITVNAGLEVYPSILNQDNKTCSLPGTALKVSCFNVRFCLKADGKGVLPRKLNFQVELLLDKLKQKGAIRRALFLYSRSPSHSKNMTISRGGLMQCEELIAYLRDESEFRDKLTPITIFMEYRLDYRTAADTTGLQPILNQFTPANISRQAHILLD
chain 2: HVQGGCALGGAETCEDCLLIGPQCAWCAQENFTHPSGVGERCDTPANLLAKGCQLNFIENPVSQVEILKNKPLSVGRQKNSSDIVQIAPQSLILKLRPGGAQTLQVHVRQTEDYPVDLYYLMDLSASMDDDLNTIKELGSRLSKEMSKLTSNFRLGFGSFVEKPVSPFVKTTPEEIANPCSSIPYFCLPTFGFKHILPLTNDAERFNEIVKNQKISANIDTPEGGFDAIMQAAVCKEKIGWRNDSLHLLVFVSDADSHFGMDSKLAGIVCPNDGLCHLDSKNEYSMSTVLEYPTIGQLIDKLVQNNVLLIFAVTQEQVHLYENYAKLIPGATVGLLQKDSGNILQLIISAYEELRSEVELEVLGDTEGLNLSFTAICNNGTLFQHQKKCSHMKVGDTASFSVTVNIPHCERRSRHIIIKPVGLGDALELLVSPECNCDCQKEVEVNSSKCHHGNGSFQCGVCACHPGHMGPRCE
B2: the equilibrium dissociation constant (Kd) in assay [1] was found to be 2.18 nM.

B3: integrin αVβ6-8DLL headpiece (the disulfide-linked loop of β6 substituted by that of β8) (complex)
chain 1: FNLDVDSPAEYSGPEGSYFGFAVDFFVPSASSRMFLLVGAPKANTTQPGIVEGGQVLKCDWSSTRRCQPIEFDATGNRDYAKDDPLEFKSHQWFGASVRSKQDKILACAPLYHWRTEMKQEREPVGTCFLQDGTKTVEYAPCRSQDIDADGQGFCQGGFSIDFTKADRVLLGGPGSFYWQGQLISDQVAEIVSKYDPNVYSIKYNNQLATRTAQAIFDDSYLGYSVAVGDFNGDGIDDFVSGVPRAARTLGMVYIYDGKNMSSLYNFTGEQMAAYFGFSVAATDINGDDYADVFIGAPLFMDRGSDGKLQEVGQVSVSLQRASGDFQTTKLNGFEVFARFGSAIAPLGDLDQDGFNDIAIAAPYGGEDKKGIVYIFNGRSTGLNAVPSQILEGQWAARSGCPPSFGYSMKGATDIDKNGYPDLIVGAFGVDRAILYRARPVITVNAGLEVYPSILNQDNKTCSLPGTALKVSCFNVRFCLKADGKGVLPRKLNFQVELLLDKLKQKGAIRRALFLYSRSPSHSKNMTISRGGLMQCEELIAYLRDESEFRDKLTPITIFMEYRLDYRTAADTTGLQPILNQFTPANISRQAHILLD
chain 2: HVQGGCALGGAETCEDCLLIGPQCAWCAQENFTHPSGVGERCDTPANLLAKGCQLNFIENPVSQVEILKNKPLSVGRQKNSSDIVQIAPQSLILKLRPGGAQTLQVHVRQTEDYPVDLYYLMDLSASMDDDLNTIKELGSRLSKEMSKLTSNFRLGFGSFVEKPVSPFVKTTPEEIANPCSDYNLDCLPTFGFKHILPLTNDAERFNEIVKNQKISANIDTPEGGFDAIMQAAVCKEKIGWRNDSLHLLVFVSDADSHFGMDSKLAGIVCPNDGLCHLDSKNEYSMSTVLEYPTIGQLIDKLVQNNVLLIFAVTQEQVHLYENYAKLIPGATVGLLQKDSGNILQLIISAYEELRSEVELEVLGDTEGLNLSFTAICNNGTLFQHQKKCSHMKVGDTASFSVTVNIPHCERRSRHIIIKPVGLGDALELLVSPECNCDCQKEVEVNSSKCHHGNGSFQCGVCACHPGHMGPRCE
For B3, the Kd in assay [1] came out at 46.9 nM.

(Values after article PMC9411592, “Specificity of TGF-β1 signal designated by LRRC33 and integrin αVβ8” (Nature Communications, 2022).)
